We go through one molecule from article PMC7863910, “A novel stress-inducible CmtR-ESX3-Zn^2+ regulatory pathway essential for survival of Mycobacterium bovis under oxidative stress” (The Journal of Biological Chemistry, 2020).

The assay deals with T1, Zur (zinc uptake repressor), purified (UniProt P9WN85 1-130).
T1 sequence: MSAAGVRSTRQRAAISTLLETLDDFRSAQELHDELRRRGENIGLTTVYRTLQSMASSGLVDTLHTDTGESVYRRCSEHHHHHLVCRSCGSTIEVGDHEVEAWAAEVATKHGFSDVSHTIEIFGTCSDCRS
Briefly: SPR; Biacore 3000; […] (200 nM) […]; running buffer 10 mM HEPES pH 7.4, 150 mM NaCl, 50 mM EDTA, 0.005% surfactant P20. The note with it: both partners purified.

B1: CmtR, His-tagged, purified (natural protein)
chain: MLTCEMRESALARLGRALADPTRCRILVALLDGVCYPGQLAAHLGLTRSNVSNHLSCLRGCGLVVATYEGRQVRYALADSHLARALGELVQVVLAVDTDQPCVAERAASGEAVEMTGS
notes: also called His-tagged CmtR
In the case of B1, the binding result is on record as “binds”.
